For experiment [1], the target named is MBP-Z(6H). The experiment is described as follows: cross-linking.
The target of experiment [2] is MBP-Z(6K). The experiment is described as follows: cross-linking.
The target in experiment [3] is MBP-Z(6Y). The experiment is described as follows: cross-linking.
The target in experiment [4] is extracellular domain (ECD) of human epidermal growth factor receptor (EGFR) (human) (UniProt P00533). The experiment can be described thus: cross-linking.
Experiment [5] addresses extracellular domain (ECD) of human epidermal growth factor receptor 2 (HER2) (human) (UniProt P04626). The experiment can be described thus: cross-linking.
Experiment [6] shares this target. The experiment can be described thus: cross-linking. This is another data set of the same source.
For experiment [7] the target is unchanged. The experiment is described as follows: cross-linking. This is another data set of the same source.
In experiment [8] the target is extracellular domain (ECD) of human epidermal growth factor receptor 2 (HER2) (Homo sapiens, UniProt P04626). The experiment can be described thus: ELISA.

Residue numbers refer to the chain shown, from its start. Names and notes keep the numbering of the source. Like-named read-outs stand apart in the source and are kept apart here.

In the case of “Zspa affibody Afb(36FSY/F32R) (designed binder)”, the fold change of cross-linking rate against Afb(36FSY) in experiment [1] came out at 3.7 fold; in experiment [2], 3.4 fold; in experiment [3], 10.5 fold. Moreover, the fold change of cross-linking yield at 16 h against Afb(36FSY) amounted to 2.9 fold in experiment [1], 2.3 fold in experiment [2] and 7.9 fold in experiment [3]. “Zspa affibody Afb(36PFY/F32R) (designed binder)” yielded a percent increase of the PFEx cross-linking rate against Afb(36PFY) in experiment [1] of 44%. This molecule also returned a kobs of cross-linking in experiment [3] of 0.0218 h⁻¹.

In the case of “covalent NK engager 7D12(Y109FSY/E44R)-C21 (bispecific antibody)”, in experiment [4], the fold change of kobs of cross-linking against 7D12(Y109FSY)-C21 was found to be 2.5 fold. nanobody 2rs15d(D54FSY) (VHH) displayed a kobs of cross-linking in experiment [5] of 0.568 h⁻¹. In experiment [6], nanobody 2rs15d(D54FSY/D56R) (VHH) displayed a fold change of kobs of cross-linking against 2rs15d(D54FSY) at pH 6.0 of 10.7 fold and a kobs of cross-linking of 0.705 h⁻¹. In addition, in experiment [7], the fold change of kobs of cross-linking against 2rs15d(D54FSY) at pH 6.5 was 6.6 fold and the kobs of cross-linking came to 0.888 h⁻¹. In experiment [5], this molecule showed a kobs of cross-linking of 1.96 h⁻¹. The molecule nanobody 7D12(Y109FFY/E44R) (VHH) displayed a kobs of cross-linking in experiment [4] of 0.66 h⁻¹.

nanobody 7D12(Y109FSY/E44R) (VHH) gave a kobs of cross-linking in experiment [4] of 0.342 h⁻¹.

In experiment [4], nanobody 7D12(Y109mFSY/E44R) (VHH) yielded a fold change of kobs of cross-linking against 7D12(Y109mFSY) of 1.9 fold.

B1: nanobody 2rs15d(D54Y) with the Arg mutation at G53 (VHH)
VHH: QVQLQESGGGSVQAGGSLKLTCAASGYIFNSCGMGWYRQSPGRERELVSRISRYGDTWHKESVKGRFTISQDNVKKTLYLQMNSLKPEDTAVYFCAVCYNLETYWGQGTQVTVSS
Turning to B1, the binding result in experiment [8] is “binds”.

B2: nanobody 2rs15d(D54Y) with the Arg mutation at G55 (VHH)
VHH: B1 VHH with R53G, G55R
Take B2: the binding result in experiment [8] is “binds”.

B3: nanobody 2rs15d(D54Y) with the Arg mutation at D56 (VHH)
VHH: B1 VHH with R53G, D56R
As for B3, the “fold decrease of binding affinity against 2rs15d(D54Y)” value in experiment [8] came out at 14 fold.

The values are drawn from publication PMC11560669 (Angewandte Chemie (International ed. in English), 2024).
